Source: paper doi:10.64898/2025.12.15.694324

Molecular target: PARP15^CAT WT, isolated catalytic domain of human PARP15, batch with His-tag (human)
Assay: native MS

PARP15^CAT WT, isolated catalytic domain of human PARP15, batch with His-tag (domain or fragment)
stoichiometry N: 2
